Test results taken from PMC1277818, “Substrate specificity analysis of protein kinase complex Dbf2-Mob1 by peptide library and proteome array screening” (BMC Biochemistry, 2005).

B1: YOL104C: GST fusion yeast protein on proteome chip (protein, UniProt Q12366 1-352, looked up)
Non-disjunction protein 1: MSKDNRLASILLQPVASSSGNCTEFHDSKLHTLQEELNFLPLEGVASNVCPPMFRGHKNYVFVLYCLNQVDLVTNLQDSTKRYYPLQIFKDCQLSSLVQKDFSHYFQLSRQKEGEDRNDSDTTLVNVVNSGVSRHRSQLLKMCIIPRICSFDKSNSKTYKLIQEYVNRFETVLTKFGPEKDFTKVYANWSKLIESFNELILHDLLVKWQQWSELTQPNATVHQNIPNVLRELVIKLTQRYFTFQPSYSCSIDEFTTILLNKNALSLLDVFRKPRKYKLNFGLWLDCQNGILIFTNGIVQMADEITSERVKSFVRPAHLLVLEDHSNDEAVKKLMFFTFSAILQCFTDEILNC
modifications: GST tag
notes: GST fusion yeast protein on proteome chip
B2: YGL105W: GST fusion yeast protein on proteome chip (protein, UniProt P46672 1-376, looked up)
tRNA-aminoacylation cofactor …: MSDLVTKFESLIISKYPVSFTKEQSAQAAQWESVLKSGQIQPHLDQLNLVLRDNTFIVSTLYPTSTDVHVFEVALPLIKDLVASSKDVKSTYTTYRHILRWIDYMQNLLEVSSTDKLEINHDLDLPHEVIEKKKKAPAGGAADAAAKADEDVSKKAKKQDHPRGKPDEETLKKLREEAKAKKAAKKAANAKQQQEQQNKAPEKPKPSAIDFRVGFIQKAIKHPDADSLYVSTIDVGDEEGPRTVCSGLVKHFPLDAMQERYVVVVCNLKPVNMRGIKSTAMVLCGSNDDKVEFVEPPKDSKAGDKVFFEGFGDEAPMKQLNPKKKIWEHLQPHFTTNDGLEVIFKDEEEKDHPVRKLTNAKGESFKVASIANAQVR
modifications: GST fusion
notes: as for B1
B3: YPL211W: GST fusion yeast protein on proteome chip (protein, UniProt Q08962 1-181, looked up)
60S ribosome subunit …: MRQLTEEETKVVFEKLAGYIGRNISFLVDNKELPHVFRLQKDRVYYVPDHVAKLATSVARPNLMSLGICLGKFTKTGKFRLHITSLTVLAKHAKYKIWIKPNGEMPFLYGNHVLKAHVGKMSDDIPEHAGVIVFAMNDVPLGFGVSAKSTSESRNMQPTGIVAFRQADIGEYLRDEDTLFT
modifications: GST tag
notes: as for B1
B4: YKL146W: GST fusion yeast protein on proteome chip (protein, UniProt P36062 1-692, looked up)
Vacuolar amino acid …: MNGKEVSSGSGRTQSNNNKKNNNGGSTGISHASGSPLTDGNGGNSNGNSRSRSRSRKSSGTTGGLLKKPPLLVNNEAVHASVPDASHTSCNNGTLEVSINNPEPHVVDAVARHLIRNPSNSLQLQGGDITRDLYKWTNDHPSSPSQYQYPSQPALSTSIPSQAPSFSNRKRSMSFSAASIASSSHLNNNSEANGNPLAAIGLAPAPMTHEEIRAPGGFRRSFIIQKRRKHNVDAPIPNFFTRNFIEFLTLYGHFAGEDLSEEEEEEEETEEEPEEEALETESTQLVSREHGRHPHKSSTVKAVLLLLKSFVGTGVLFLPKAFHNGGWGFSALCLLSCALISYGCFVSLITTKDKVGVDGYGDMGRILYGPKMKFAILSSIALSQIGFSAAYTVFTATNLQVFSENFFHLKPGSISLATYIFAQVLIFVPLSLTRNIAKLSGTALIADLFILLGLVYVYVYSIYYIAVNGVASDTMLMFNKADWSLFIGTAIFTFEGIGLLIPIQESMKHPKHFRPSLSAVMCIVAVIFISCGLLCYAAFGSDVKTVVLLNFPQDTSYTLTVQLLYALAILLSTPLQLFPAIRILENWTFPSNASGKYNPKVKWLKNYFRCAIVVLTSILAWVGANDLDKFVSLVGSFACIPLIYIYPPLLHYKASILSGTSRARLLLDLIVIVFGVAVMAYTSWQTIKMWSQ
modifications: GST tag
notes: as for B1
B5: YML035C: GST fusion yeast protein on proteome chip (protein, UniProt P15274 1-810, looked up)
AMP deaminase: MDNQATQRLNDLSLEPAPSHDEQDGSGLVIDIDQRKIGDEQAGVVVDDETPPLEQQDSHESLAADSRNANFSYHENQQLLENGTKQLALDEHDSHSAILEQPSHSTNCSSSNIAAMNKGHDSADHASQNSGGKPRTLSASAQHILPETLKSFAGAPVVNKQVRTSASYKMGMLADDASQQFLDDPSSELIDLYSKVAECRNLRAKYQTISVQNDDQNPKNKPGWVVYPPPPKPSYNSDTKTVVPVTNKPDAEVFDFTKCEIPGEDPDWEFTLNDDDSYVVHRSGKTDELIAQIPTLRDYYLDLEKMISISSDGPAKSFAYRRLQYLEARWNLYYLLNEYQETSVSKRNPHRDFYNVRKVDTHVHHSACMNQKHLLRFIKHKLRHSKDEKVIFRDGKLLTLDEVFRSLHLTGYDLSIDTLDMHAHKDTFHRFDKFNLKYNPIGESRLREIFLKTNNYIKGTYLADITKQVIFDLENSKYQNCEYRISVYGRSLDEWDKLASWVIDNKVISHNVRWLVQIPRLYDIYKKTGIVQSFQDICKNLFQPLFEVTKNPQSHPKLHVFLQRVIGFDSVDDESKVDRRFHRKYPKPSLWEAPQNPPYSYYLYYLYSNVASLNQWRAKRGFNTLVLRPHCGEAGDPEHLVSAYLLAHGISHGILLRKVPFVQYLYYLDQVGIAMSPLSNNALFLTYDKNPFPRYFKRGLNVSLSTDDPLQFSYTREPLIEEYSVAAQIYKLSNVDMCELARNSVLQSGWEAQIKKHWIGKDFDKSGVEGNDVVRTNVPDIRINYRYDTLSTELELVNHFANFKRTIEEK
modifications: GST tag
notes: as for B1
B6: YIL010W: GST fusion yeast protein on proteome chip (protein, UniProt P40553 1-215, looked up)
Peroxiredoxin DOT5: MGEALRRSTRIAISKRMLEEEESKLAPISTPEVPKKKIKTGPKHNANQAVVQEANRSSDVNELEIGDPIPDLSLLNEDNDSISLKKITENNRVVVFFVYPRASTPGCTRQACGFRDNYQELKKYAAVFGLSADSVTSQKKFQSKQNLPYHLLSDPKREFIGLLGAKKTPLSGSIRSHFIFVDGKLKFKRVKISPEVSVNDAKKEVLEVAEKFKEE
modifications: GST tag
notes: as for B1
B7: YGR264C: GST fusion yeast protein on proteome chip (protein, UniProt P00958 2-751, looked up)
Methionine--tRNA ligase, …: SFLISFDKSKKHPAHLQLANNLKIALALEYASKNLKPEVDNDNAAMELRNTKEPFLLFDANAILRYVMDDFEGQTSDKYQFALASLQNLLYHKELPQQHVEVLTNKAIENYLVELKEPLTTTDLILFANVYALNSSLVHSKFPELPSKVHNAVALAKKHVPRDSSSFKNIGAVKIQADLTVKPKDSEILPKPNERNILITSALPYVNNVPHLGNIIGSVLSADIFARYCKGRNYNALFICGTDEYGTATETKALEEGVTPRQLCDKYHKIHSDVYKWFQIGFDYFGRTTTDKQTEIAQHIFTKLNSNGYLEEQSMKQLYCPVHNSYLADRYVEGECPKCHYDDARGDQCDKCGALLDPFELINPRCKLDDASPEPKYSDHIFLSLDKLESQISEWVEKASEEGNWSKNSKTITQSWLKDGLKPRCITRDLVWGTPVPLEKYKDKVLYVWFDATIGYVSITSNYTKEWKQWWNNPEHVSLYQFMGKDNVPFHTVVFPGSQLGTEENWTMLHHLNTTEYLQYENGKFSKSRGVGVFGNNAQDSGISPSVWRYYLASVRPESSDSHFSWDDFVARNNSELLANLGNFVNRLIKFVNAKYNGVVPKFDPKKVSNYDGLVKDINEILSNYVKEMELGHERRGLEIAMSLSARGNQFLQENKLDNTLFSQSPEKSDAVVAVGLNIIYAVSSIITPYMPEIGEKINKMLNAPALKIDDRFHLAILEGHNINKAEYLFQRIDEKKIDEWRAKYGGQQV
modifications: GST tag
notes: as for B1
B8: YDR299W: GST fusion yeast protein on proteome chip (protein, UniProt Q06631 1-534, looked up)
Protein BFR2: MEKSLADQISDIAIKPVNKDFDIEDEENASLFQHNEKNGESDLSDYGNSNTEETKKAHYLEVEKSKLRAEKGLELNDPKYTGVKGSRQALYEEVSENEDEEEEEEEEEEKEEDALSFRTDSEDEEVEIDEEESDADGGETEEAQQKRHALSKLIQQETKQAINKLSQSVQRDASKGYSILQQTKLFDNIIDLRIKLQKAVIAANKLPLTTESWEEAKMDDSEETKRLLKENEKLFNNLFNRLINFRIKFQLGDHITQNEEVAKHKLSKKRSLKELYQETNSLDSELKEYRTAVLNKWSTKVSSASGNAALSSNKFKAINLPADVQVENQLSDMSRLMKRTKLNRRNITPLYFQKDCANGRLPELISPVVKDSVDDNENSDDGLDIPKNYDPRRKDNNAIDITENPYVFDDEDFYRVLLNDLIDKKISNAHNSESAAITITSTNARSNNKLKKNIDTKASKGRKLNYSVQDPIANYEAPITSGYKWSDDQIDEFFAGLLGQRVNFNENEDEEQHARIENDEELEAVKNDDIQIFG
modifications: GST tag
notes: as for B1

target: T1, FHHDbf2-H6Mob1TM9 (Saccharomyces cerevisiae, UniProt P22204+P40484); assay: Yeast proteome chip assay; assay type: biochemical; details: Table 3; GST fusion proteins on proteome chip, [γ-33P]ATP, chips in duplicate, computer analysis
T1 construct: made in house; host or cells: Hi5 insect cells (baculovirus)
T1 sequence (P22204 1-572): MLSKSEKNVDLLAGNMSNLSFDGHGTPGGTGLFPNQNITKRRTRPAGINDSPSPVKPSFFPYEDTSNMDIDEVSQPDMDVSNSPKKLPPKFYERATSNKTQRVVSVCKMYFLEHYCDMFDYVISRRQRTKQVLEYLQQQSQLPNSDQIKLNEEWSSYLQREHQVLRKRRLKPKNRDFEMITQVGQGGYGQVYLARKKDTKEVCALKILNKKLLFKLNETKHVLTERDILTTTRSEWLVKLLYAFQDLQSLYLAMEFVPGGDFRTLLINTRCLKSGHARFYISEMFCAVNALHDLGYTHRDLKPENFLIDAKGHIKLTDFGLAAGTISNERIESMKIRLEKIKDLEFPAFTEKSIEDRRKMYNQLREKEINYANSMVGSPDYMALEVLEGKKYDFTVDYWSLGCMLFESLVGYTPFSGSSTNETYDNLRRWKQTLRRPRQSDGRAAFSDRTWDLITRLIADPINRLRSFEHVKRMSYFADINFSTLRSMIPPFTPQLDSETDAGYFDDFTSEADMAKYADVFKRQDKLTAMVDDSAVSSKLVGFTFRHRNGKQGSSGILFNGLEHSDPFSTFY
T1 sequence (P40484 1-314 partner): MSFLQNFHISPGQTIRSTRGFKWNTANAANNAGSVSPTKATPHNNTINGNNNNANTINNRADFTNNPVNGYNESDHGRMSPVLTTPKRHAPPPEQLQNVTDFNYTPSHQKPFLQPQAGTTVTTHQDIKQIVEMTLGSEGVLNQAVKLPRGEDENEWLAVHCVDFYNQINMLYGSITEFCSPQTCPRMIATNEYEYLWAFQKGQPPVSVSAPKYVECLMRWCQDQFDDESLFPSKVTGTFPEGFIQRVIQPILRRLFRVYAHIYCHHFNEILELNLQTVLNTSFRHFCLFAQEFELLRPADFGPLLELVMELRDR
Method: The relatively low sequence complexity of the Dbf2 phosphorylation motif diminished the power of using genome-wide bioinformatics screens to identify putative substrates. Accordingly, we carried out a proteome array screen to identify putative yeast substrates. […] After taking into account the proteins phosphorylated in the negative controls, 67 proteins were determined to be putative Dbf2-Mob1 substrates (Table 3).
Yeast proteome microarrays were prepared as previously described. Overexpressed GST-tagged yeast proteins were purified from ~4,400 yeast strains and spotted on slides. To determine the optimal amount of kinase to use for probing proteome chips, we performed trial assays as described (J. Ptacek et al., submitted). […] The full proteome array was probed with 4 μl ^FHHDbf2-^H6Mob1^TM9 in 200 μl of DKB supplemented with [γ-^33P]ATP. As a control, ^FHHDbf2(N305A)-^H6Mob1^TM9 was used to probe the proteome array. […] To control for autophosphorylated proteins, the proteome array was probed with 200 μl of DKB supplemented with [γ-^33P]ATP. Proteome chips were assayed in duplicate in each case. Data analysis was performed as described (J. Ptacek et al., submitted). Briefly, signals were analyzed by a computer algorithm designed to normalize background and identify signals as positive if 3 of 4 spots (each protein is spotted twice on each slide and each kinase or control was tested on 2 slides) were 2 standard deviations above background and the fourth spot was 1.5 standard deviations above background.

Molecule | Slide Signal (after normalization)
B1 | 0.3611
B2 | 0.1332
B3 | 0.4521
B4 | 0.3592
B5 | 0.1384
B6 | 0.2606
B7 | 0.1328
B8 | 0.47
